Results as given in the RNAGym collection of RNA variant scans (doi:10.1073/pnas.2313332121).

B1: TPR t1 (parent)
chain: GACCAAUCUGCCCUCAGAGCUCGAGAACAUCUUCGGAUGCAGAGGAGGCAGGCUUCGGUGGCGCGAUAGCGCCAACGUCCUCAACCUCCAAUGCAUCCCACCACAUGAUGAUGCCUGAAGAGCCUUGGUUUUUUG

Variants of: B1
Experiment: polymerase ribozyme fitness, log enrichment relative to wild type (log ratio); higher = more active; in vitro selection for triplet polymerase activity
How it was run: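 Mutant libraries of both subunits of a heterodimeric triplet polymerase ribozyme were PCR-built, transcribed, and selected once in triplicate, with frozen incubation at −7 °C and capture of gel-excised extended constructs on streptavidin beads before RT-PCR. Illumina sequencing of input and output libraries was filtered to genotypes with ≥10 input reads and ≥1 read per output. Fitness is the logarithm of genotype enrichment over wild-type enrichment, using inverse-variance-weighted replicate averages. The logarithm is base 2.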

**Q.** Which “polymerase ribozyme fitness (log ratio)” value does the source give for C49A C62G here?
**A.** -2.22

**Q.** For A50U A111G, which “polymerase ribozyme fitness (log ratio)” value is on record?
**A.** -0.837

**Q.** For G48U G63A C79G, which “polymerase ribozyme fitness (log ratio)” value is on record?
**A.** -6.13

**Q.** For C49U A50C, which “polymerase ribozyme fitness (log ratio)” value is on record?
**A.** -0.544

**Q.** Which “polymerase ribozyme fitness (log ratio)” value does the source give for C49U C73G A121C here?
**A.** 0.163

**Q.** For C49U G63U A95G U112A, which “polymerase ribozyme fitness (log ratio)” value is on record?
**A.** -2.42

**Q.** For C49U G120A, which “polymerase ribozyme fitness (log ratio)” value is on record?
**A.** 0.0229

**Q.** With C49G G60U G110A as the variant, how does the “polymerase ribozyme fitness (log ratio)” value read?
**A.** -1.76

**Q.** For G48U G71A C123A U126A, which “polymerase ribozyme fitness (log ratio)” value is on record?
**A.** -2.04

**Q.** With A50C G77U C115G as the variant, how does the “polymerase ribozyme fitness (log ratio)” value read?
**A.** -1.98

**Q.** Which “polymerase ribozyme fitness (log ratio)” value does the source give for G51A G71A here?
**A.** -4.53

**Q.** For C49U C56A A68G, which “polymerase ribozyme fitness (log ratio)” value is on record?
**A.** -5.08

**Q.** For G48U C86A C115U G120C, which “polymerase ribozyme fitness (log ratio)” value is on record?
**A.** -2.47

**Q.** For C49U C82A, which “polymerase ribozyme fitness (log ratio)” value is on record?
**A.** -0.514

**Q.** For C49U C82G, which “polymerase ribozyme fitness (log ratio)” value is on record?
**A.** -0.241

**Q.** For C49U C82U, which “polymerase ribozyme fitness (log ratio)” value is on record?
**A.** -0.598

**Q.** For G48U U55G G69A, which “polymerase ribozyme fitness (log ratio)” value is on record?
**A.** -2.77

**Q.** With C49U U59A U78C A84G as the variant, how does the “polymerase ribozyme fitness (log ratio)” value read?
**A.** -1.51

**Q.** For G48U G61U G93U U112A C124A, which “polymerase ribozyme fitness (log ratio)” value is on record?
**A.** -0.694

**Q.** With C49A G51U C56A as the variant, how does the “polymerase ribozyme fitness (log ratio)” value read?
**A.** -2.24

**Q.** For G51A C82U C124U, which “polymerase ribozyme fitness (log ratio)” value is on record?
**A.** 0.555

**Q.** With G51C C62U U112C as the variant, how does the “polymerase ribozyme fitness (log ratio)” value read?
**A.** -2.27

**Q.** With C49G C56G U87A G117A as the variant, how does the “polymerase ribozyme fitness (log ratio)” value read?
**A.** -4.51

**Q.** For A50U U78G A90U, which “polymerase ribozyme fitness (log ratio)” value is on record?
**A.** -3.54

**Q.** With A50U U59G U112G as the variant, how does the “polymerase ribozyme fitness (log ratio)” value read?
**A.** -0.842

**Q.** Which “polymerase ribozyme fitness (log ratio)” value does the source give for G48U C104U here?
**A.** -0.515

**Q.** For C49G C85G, which “polymerase ribozyme fitness (log ratio)” value is on record?
**A.** -2.67

**Q.** With A50U G52C G58C C72U C88U as the variant, how does the “polymerase ribozyme fitness (log ratio)” value read?
**A.** -4.47

**Q.** For C49A C62U A66G, which “polymerase ribozyme fitness (log ratio)” value is on record?
**A.** -1.75

**Q.** Which “polymerase ribozyme fitness (log ratio)” value does the source give for C49A A121U here?
**A.** 1.97

**Q.** For C49G G61A, which “polymerase ribozyme fitness (log ratio)” value is on record?
**A.** -0.914

**Q.** For C49A C70U, which “polymerase ribozyme fitness (log ratio)” value is on record?
**A.** -1.18

**Q.** For C49A U133A, which “polymerase ribozyme fitness (log ratio)” value is on record?
**A.** -0.928

**Q.** With C49G C76U U87C as the variant, how does the “polymerase ribozyme fitness (log ratio)” value read?
**A.** -1.3

**Q.** For C49A G122A, which “polymerase ribozyme fitness (log ratio)” value is on record?
**A.** -0.428

**Q.** With C49G A50U C72A C94A as the variant, how does the “polymerase ribozyme fitness (log ratio)” value read?
**A.** -2.42

**Q.** With C49U C56U as the variant, how does the “polymerase ribozyme fitness (log ratio)” value read?
**A.** -0.758

**Q.** Which “polymerase ribozyme fitness (log ratio)” value does the source give for C49A G69C A83C A84U here?
**A.** -4.35

**Q.** For A50G C53A C72A G93C U109G, which “polymerase ribozyme fitness (log ratio)” value is on record?
**A.** -5.37

**Q.** With G51A C79A G113A as the variant, how does the “polymerase ribozyme fitness (log ratio)” value read?
**A.** -3.64

**Q.** Which “polymerase ribozyme fitness (log ratio)” value does the source give for G51A G127A here?
**A.** -3.6

**Q.** For C49U C97U, which “polymerase ribozyme fitness (log ratio)” value is on record?
**A.** -1.01

**Q.** Which “polymerase ribozyme fitness (log ratio)” value does the source give for G51A C86U here?
**A.** -3.18

**Q.** With G51A C86A as the variant, how does the “polymerase ribozyme fitness (log ratio)” value read?
**A.** -2.78

**Q.** For C49G G69U, which “polymerase ribozyme fitness (log ratio)” value is on record?
**A.** -0.396

**Q.** Which “polymerase ribozyme fitness (log ratio)” value does the source give for A50U A95C here?
**A.** -1.9

**Q.** With C49U C73U U78C G110U as the variant, how does the “polymerase ribozyme fitness (log ratio)” value read?
**A.** -2.87

**Q.** For A50G G51A C72G C88U G110U, which “polymerase ribozyme fitness (log ratio)” value is on record?
**A.** -5.05

**Q.** For A50C C72A C124U U130A, which “polymerase ribozyme fitness (log ratio)” value is on record?
**A.** 0.593

**Q.** With C49A G71U G120U as the variant, how does the “polymerase ribozyme fitness (log ratio)” value read?
**A.** 0.255

**Q.** Which “polymerase ribozyme fitness (log ratio)” value does the source give for G48U C102U here?
**A.** -3.66

**Q.** For G48U G61U G113A, which “polymerase ribozyme fitness (log ratio)” value is on record?
**A.** -1.24

**Q.** Which “polymerase ribozyme fitness (log ratio)” value does the source give for G51C A111U here?
**A.** -6.8

**Q.** With A50C C97G as the variant, how does the “polymerase ribozyme fitness (log ratio)” value read?
**A.** -6.04

**Q.** With G51A C56U G93U as the variant, how does the “polymerase ribozyme fitness (log ratio)” value read?
**A.** -3.4

**Q.** For C49A U81A A90U C123U, which “polymerase ribozyme fitness (log ratio)” value is on record?
**A.** -1.24

**Q.** For C49A U55G A74C U81G A90G G117U, which “polymerase ribozyme fitness (log ratio)” value is on record?
**A.** -2.62

**Q.** With G51A A84C as the variant, how does the “polymerase ribozyme fitness (log ratio)” value read?
**A.** -2.3

**Q.** Which “polymerase ribozyme fitness (log ratio)” value does the source give for G51A G57U A83G A84U A105G U130G here?
**A.** -6.12

**Q.** With G48U U87G U133G as the variant, how does the “polymerase ribozyme fitness (log ratio)” value read?
**A.** -0.334

**Q.** For A50U G60U, which “polymerase ribozyme fitness (log ratio)” value is on record?
**A.** -1.4

**Q.** With C49G G61U C88A as the variant, how does the “polymerase ribozyme fitness (log ratio)” value read?
**A.** -1.08

**Q.** For A50C G71U C101G, which “polymerase ribozyme fitness (log ratio)” value is on record?
**A.** -2.67

**Q.** Which “polymerase ribozyme fitness (log ratio)” value does the source give for G48U G57A C62U U78C C114A U133G here?
**A.** -3.01

**Q.** For C49A G57U G127U, which “polymerase ribozyme fitness (log ratio)” value is on record?
**A.** -1.6

**Q.** Which “polymerase ribozyme fitness (log ratio)” value does the source give for C49G C115G G135U here?
**A.** -3.4

**Q.** Which “polymerase ribozyme fitness (log ratio)” value does the source give for C49U G61A U96A here?
**A.** -0.582

**Q.** Which “polymerase ribozyme fitness (log ratio)” value does the source give for A50C G61U C79G U129C here?
**A.** -2.24

**Q.** For C49G G63U U130G, which “polymerase ribozyme fitness (log ratio)” value is on record?
**A.** -2.28

**Q.** Which “polymerase ribozyme fitness (log ratio)” value does the source give for G48U C82G U92G here?
**A.** -4.41

**Q.** Which “polymerase ribozyme fitness (log ratio)” value does the source give for G48U G57A C101U C124G here?
**A.** 0.412

**Q.** With A50G G60A as the variant, how does the “polymerase ribozyme fitness (log ratio)” value read?
**A.** 0.351

**Q.** Which “polymerase ribozyme fitness (log ratio)” value does the source give for C49U A50G G51A U54G G61A U112C here?
**A.** -0.096

**Q.** For C49G C79U U96G, which “polymerase ribozyme fitness (log ratio)” value is on record?
**A.** -0.996

**Q.** Which “polymerase ribozyme fitness (log ratio)” value does the source give for G51A A95G here?
**A.** -2.62

**Q.** For C49U C124U, which “polymerase ribozyme fitness (log ratio)” value is on record?
**A.** 1.03

**Q.** Which “polymerase ribozyme fitness (log ratio)” value does the source give for A50C A90C U133G here?
**A.** -1.46

**Q.** For A50G G77U C86G, which “polymerase ribozyme fitness (log ratio)” value is on record?
**A.** -1.1

**Q.** Which “polymerase ribozyme fitness (log ratio)” value does the source give for G51A G60A A84G G120U here?
**A.** -2.9

**Q.** For C49A G69C, which “polymerase ribozyme fitness (log ratio)” value is on record?
**A.** -1.8

**Q.** For C49G C62U, which “polymerase ribozyme fitness (log ratio)” value is on record?
**A.** -0.813

**Q.** For A50G U78G, which “polymerase ribozyme fitness (log ratio)” value is on record?
**A.** 0.0351

**Q.** With C49A U112A as the variant, how does the “polymerase ribozyme fitness (log ratio)” value read?
**A.** 1.49
